Patent US20080260745A1

Molecular target: HLA-A2 on T2 cells
Assay: T2 HLA-stabilization assay, HLA-A2 level by flow cytometry
Conditions: remark: other sources report otherwise

Binder: IISAVVGIL [GP2 peptide from HER2/neu]
- mean fluorescence intensity (mean fluorescence intensity): 682
